Article PMC12630686, “A degron-mimicking molecular glue drives CRBN homo-dimerization and degradation” (Nature Communications, 2025)

B1: HaloTag-mouse CRBN (wild type) [mouse] / hCRBN-NanoLuc with a 191-248 aa deletion (Trunc) [human] (parent)
chain 1: MAGEGDQQDAAHNMGNHLPLLPADSEDEDDEIEMEVEDQDSKEARKPNIINFDTSLPTSHTYLGADMEEFHGRTLHDDDSCQVIPVLPEVLMILIPGQTLPLQLSHPQEVSMVRNLIQKDRTFAVLAYSNVQEREAQFGTTAEIYAYREEQEFGIEVVKVKAIGRQRFKVLELRTQSDGIQQAKVQILPECVLPSTMSAVQLESLNKCQVFPSKPISWEDQYSCKWWQKYQKRKFHCANLTSWPRWLYSLYDAETLMDRIKKQLREWDENLKDDSLPENPIDFSYRVAACLPIDDVLRIQLLKIGSAIQRLRCELDIMNKCTSLCCKQCQETEITTKNEIFSLSLCGPMAAYVNPHGYVHETLTVYKASNLNLIGRPSTVHSWFPGYAWTIAQCKICASHIGWKFTATKKDMSPQKFWGLTRSALLPTIPETEDEISPDKVILCL
chain 2: MAGEGDQQDAAHNMGNHLPLLPAESEEEDEMEVEDQDSKEAKKPNIINFDTSLPTSHTYLGADMEEFHGRTLHDDDSCQVIPVLPQVMMILIPGQTLPLQLFHPQEVSMVRNLIQKDRTFAVLAYSNVQEREAQFGTTAEIYAYREEQDFGIEIVKVKAIGRQRFKVLELRTQSDGIQQAKVQILPECVLDAETLMDRIKKQLREWDENLKDDSLPSNPIDFSYRVAACLPIDDVLRIQLLKIGSAIQRLRCELDIMNKCTSLCCKQCQETEITTKNEIFSLSLCGPMAAYVNPHGYVHETLTVYKACNLNLIGRPSTEHSWFPGYAWTVAQCKICASHIGWKFTATKKDMSPQKFWGLTRSALLPTIPDTEDEISPDKVILCL
B2: HaloTag-CRBN (human, wild type) [human] / hCRBN-NanoLuc with a 191-248 aa deletion (Trunc) [human] (parent)
chain 1: MAGEGDQQDAAHNMGNHLPLLPAESEEEDEMEVEDQDSKEAKKPNIINFDTSLPTSHTYLGADMEEFHGRTLHDDDSCQVIPVLPQVMMILIPGQTLPLQLFHPQEVSMVRNLIQKDRTFAVLAYSNVQEREAQFGTTAEIYAYREEQDFGIEIVKVKAIGRQRFKVLELRTQSDGIQQAKVQILPECVLPSTMSAVQLESLNKCQIFPSKPVSREDQCSYKWWQKYQKRKFHCANLTSWPRWLYSLYDAETLMDRIKKQLREWDENLKDDSLPSNPIDFSYRVAACLPIDDVLRIQLLKIGSAIQRLRCELDIMNKCTSLCCKQCQETEITTKNEIFSLSLCGPMAAYVNPHGYVHETLTVYKACNLNLIGRPSTEHSWFPGYAWTVAQCKICASHIGWKFTATKKDMSPQKFWGLTRSALLPTIPDTEDEISPDKVILCL
chain 2: B1 chain 2

Variants of: B1
Test: NanoBRET
Details: with hCRBN-NanoLuc with a 191-248 aa deletion (Trunc) [human]; MRT-31619 at log10 concentration = 4 (highest dose; concentration unit inferred); six biological replicates, mean ± SD; read off a plot

Going from chain 1 MAGEGDQQDAAHNMGNHLPLLPADSEDEDDEIEMEVEDQDSKEARKPNIINFDTSLPTSHTYLGADMEEFHGRTLHDDDSCQVIPVLPEVLMILIPGQTLPLQLSHPQEVSMVRNLIQKDRTFAVLAYSNVQEREAQFGTTAEIYAYREEQEFGIEVVKVKAIGRQRFKVLELRTQSDGIQQAKVQILPECVLPSTMSAVQLESLNKCQVFPSKPISWEDQYSCKWWQKYQKRKFHCANLTSWPRWLYSLYDAETLMDRIKKQLREWDENLKDDSLPENPIDFSYRVAACLPIDDVLRIQLLKIGSAIQRLRCELDIMNKCTSLCCKQCQETEITTKNEIFSLSLCGPMAAYVNPHGYVHETLTVYKASNLNLIGRPSTEHSWFPGYAWTVAQCKICASHIGWKFTATKKDMSPQKFWGLTRSALLPTIPETEDEISPDKVILCL [chain 1 V380E I391V] to chain 1 MAGEGDQQDAAHNMGNHLPLLPADSEDEDDEIEMEVEDQDSKEARKPNIINFDTSLPTSHTYLGADMEEFHGRTLHDDDSCQVIPVLPEVLMILIPGQTLPLQLFHPQEVSMVRNLIQKDRTFAVLAYSNVQEREAQFGTTAEIYAYREEQEFGIEVVKVKAIGRQRFKVLELRTQSDGIQQAKVQILPECVLPSTMSAVQLESLNKCQVFPSKPISWEDQYSCKWWQKYQKRKFHCANLTSWPRWLYSLYDAETLMDRIKKQLREWDENLKDDSLPENPIDFSYRVAACLPIDDVLRIQLLKIGSAIQRLRCELDIMNKCTSLCCKQCQETEITTKNEIFSLSLCGPMAAYVNPHGYVHETLTVYKASNLNLIGRPSTVHSWFPGYAWTIAQCKICASHIGWKFTATKKDMSPQKFWGLTRSALLPTIPETEDEISPDKVILCL [chain 1 S105F], the response falls from 2.7 mBU to 1.9 mBU.

Variants of: B2
Test: NanoBRET
Details: with hCRBN-NanoLuc with a 191-248 aa deletion (Trunc) [human]; MRT-31619 at log10 concentration = 4 (highest dose; concentration unit inferred); three biological replicates, mean ± SEM; read off a plot

First: chain 1 MAGEGDQQDAAHNMGNHLPLLPAESEEEDEMEVEDQDSKEAKKPNIINFDTSLPTSHTYLGADMEEFHGRTLHDDDSCQVIPVLPQVMMILIPGQTLPLQLFHPQEVSMVRNLIQKDRTFAVLAYSNVQEREAQFGTTAEIYAYREEQDFGIEIVKVKAIGRQRFKVLELRTQSDGIQQAKVQILPECVLPSTMSAVQLESLNKCQIFPSKPVSREDQCSYKWWQKYQKRKFHCANLTSWPRWLYSLYDAETLMDRIKKQLREWDENLKDDSLPSNPIDFSYRVAACLPIDDVLRIQLLKIGSAIQRLRCELDIMNKCTSLCCKQCQETEITTKNEIFSLSLCGPMAAYVNPHGYVHETLTVYKACNLNLIGAPSTEHSWFPGYAWTVAQCKICASHIGWKFTATKKDMSPQKFWGLTRSALLPTIPDTEDEISPDKVILCL [chain 1 R373A]
Second: chain 1 MAGEGDQQDAAHNMGNHLPLLPAESEEEDEMEVEDQDSKEAKKPNIINFDTSLPTSHTYLGADMEEFHGRTLHDDDSCQVIPVLPQVMMILIPGQTLPLQLFHPQEVSMVRNLIQKDRTFAVLAYSNVQEREAQFGTTAEIYAYREEQDAGIEIVKVKAIGRQRFKVLELRTQSDGIQQAKVQILPECVLPSTMSAVQLESLNKCQIFPSKPVSREDQCSYKWWQKYQKRKFHCANLTSWPRWLYSLYDAETLMDRIKKQLREWDENLKDDSLPSNPIDFSYRVAACLPIDDVLRIQLLKIGSAIQRLRCELDIMNKCTSLCCKQCQETEITTKNEIFSLSLCGPMAAYVNPHGYVHETLTVYKACNLNLIGRPSTEHSWFPGYAWTVAQCKICASHIGWKFTATKKDMSPQKFWGLTRSALLPTIPDTEDEISPDKVILCL [chain 1 F150A]
The response of the first is lower: 2.6 mBU for the first, 3.7 mBU for the second.

Going from chain 1 MAGEGDQQDAAHNMGNHLPLLPAESEEEDEMEVEDQDSKEAKKPNIINFDTSLPTSHTYLGADMEEFHGRTLHDDDSCQVIPVLPQVMMILIPGQTLPLQLFHPQEVSMVRNLIQKDRTFAVLAYSNVQEREAQFGTTAEIYAYREEQDFGIEIVKVKAIGRQRFKVLELRTQSDGIQQAKVQILPECVLPSTMSAVQLESLNKCQIFPSKPVSREDQCSYKWWQKYQKRKFHCANLTSWPRWLYSLYDAETLMDRIKKQLREWDENLKDDSLPSNPIDFSYRVAACLPIDDVLRIQLLKIGSAIQRLRCELDIMNKCTSLCCKQCQETEITTKNEIFSLSLCGPMAAYVNPHGYVHETLTVYKACNLNLIGRPSTAHSWFPGYAWTVAQCKICASHIGWKFTATKKDMSPQKFWGLTRSALLPTIPDTEDEISPDKVILCL [chain 1 E377A] to chain 1 MAGEGDQQDAAHNMGNHLPLLPAESEEEDEMEVEDQDSKEAKKPNIINFDTSLPTSHTYLGADMEEFHGRTLHDDDSCQVIPVLPQVMMILIPGQTLPLQLFHPQEVSMVRNLIQKDRTFAVLAYSNVQEREAQFGTTAEIYAYREEQDAGIEIVKVKAIGRQRFKVLELRTQSDGIQQAKVQILPECVLPSTMSAVQLESLNKCQIFPSKPVSREDQCSYKWWQKYQKRKFHCANLTSWPRWLYSLYDAETLMDRIKKQLREWDENLKDDSLPSNPIDFSYRVAACLPIDDVLRIQLLKIGSAIQRLRCELDIMNKCTSLCCKQCQETEITTKNEIFSLSLCGPMAAYVNPHGYVHETLTVYKACNLNLIGAPSTEHSWFPGYAWTVAQCKICASHIGWKFTATKKDMSPQKFWGLTRSALLPTIPDTEDEISPDKVILCL [chain 1 F150A R373A], the response falls from 3.3 mBU to 2.9 mBU.
